Laboratory results as given in patent US20180291083A1 (IMMATICS BIOTECHNOLOGIES, published 2018).

What was measured:
Assay in all cases: UV ligand exchange ELISA; exchange yield grade
[1] = target: T1, HLA-A*24:02 (human)
T1 construct: Peptide-receptive MHC class I monomer made by UV cleavage of a UV-sensitive ligand
In short: (§1)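 Peptide-MHC complexes formed by UV-triggered exchange of a cleavable ligand for the test peptide. Exchange yield measured on streptavidin-coated plates by HRP anti-β2m ELISA (1 h, 37 °C; A450) on 100-fold diluted samples. Refolded HLA-A*02:01 monomers at 15-500 ng/ml served as standards.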

[2] = target: T2, HLA-A*01:01 (human)
T2 construct: Peptide-receptive MHC class I monomer made by UV cleavage of a UV-sensitive ligand
In short: as §1

[3] = target: T3, HLA-A*02:01 (human)
T3 construct: Peptide-receptive MHC class I monomer made by UV cleavage of a UV-sensitive ligand
In short: as §1

[4] = target: T4, HLA-A*03:01 (human)
T4 construct: Peptide-receptive MHC class I monomer made by UV cleavage of a UV-sensitive ligand
In short: as §1

B1: KYLADLPTL (peptide)
peptide: KYLADLPTL
B1 was tested. Which peptide exchange yield [1] did it give?
Its peptide exchange yield is over 75%.

B2: IFKEHNFSF (peptide)
peptide: IFKEHNFSF
B2 was tested. Which peptide exchange yield [1] did it give?
The peptide exchange yield was over 75%.

B3: YYLSHLERI (peptide)
peptide: YYLSHLERI
With B3 as the binder, how does the peptide exchange yield [1] read?
Its peptide exchange yield is over 75%.

B4: IYFSNTHFF (peptide)
peptide: IYFSNTHFF
For B4, which peptide exchange yield [1] is on record?
Its peptide exchange yield is 50 to 75%.

B5: SFQSKATVF (peptide)
peptide: SFQSKATVF
For B5, which peptide exchange yield [1] is on record?
The peptide exchange yield was 20 to 50%.

B6: VFLPSEGFNF (peptide)
peptide: VFLPSEGFNF
Which peptide exchange yield [1] does the source give for B6 here?
Its peptide exchange yield is 50 to 75%.

B7: LTEGHSGNYY (peptide)
peptide: LTEGHSGNYY
B7 was tested. Which peptide exchange yield [2] did it give?
Its peptide exchange yield is 50 to 75%.

B8: YINPAKLTPY (peptide)
peptide: YINPAKLTPY
How did the peptide exchange yield [2] turn out when B8 was run?
Its peptide exchange yield is 20 to 50%.

B9: ALDQNKMHY (peptide)
peptide: ALDQNKMHY
For B9, which peptide exchange yield [2] is on record?
Its peptide exchange yield is 50 to 75%.

B10: GTDVLSTRY (peptide)
peptide: GTDVLSTRY
With B10 as the binder, how does the peptide exchange yield [2] read?
The peptide exchange yield was 50 to 75%.

B11: VTEGVAQTSFY (peptide)
peptide: VTEGVAQTSFY
How did the peptide exchange yield [2] turn out when B11 was run?
The peptide exchange yield was over 75%.

B12: FMDSESFYY (peptide)
peptide: FMDSESFYY
B12 was tested. Which peptide exchange yield [2] did it give?
The peptide exchange yield was 10 to 20%.

B13: STDSAGSSY (peptide)
peptide: STDSAGSSY
For B13, which peptide exchange yield [2] is on record?
The peptide exchange yield was over 75%.

B14: YSHPQYSSY (peptide)
peptide: YSHPQYSSY
For B14, which peptide exchange yield [2] is on record?
The peptide exchange yield was 20 to 50%.

B15: YSDIGHLL (peptide)
peptide: YSDIGHLL
With B15 as the binder, how does the peptide exchange yield [2] read?
Its peptide exchange yield is 20 to 50%.

B16: AAADHHSLY (peptide)
peptide: AAADHHSLY
Which peptide exchange yield [2] does the source give for B16 here?
Its peptide exchange yield is 50 to 75%.

B17: ATDIVDSQY (peptide)
peptide: ATDIVDSQY
Which peptide exchange yield [2] does the source give for B17 here?
Its peptide exchange yield is 50 to 75%.

B18: ITDIHIKY (peptide)
peptide: ITDIHIKY
Which peptide exchange yield [2] does the source give for B18 here?
The peptide exchange yield was over 75%.

B19: TFDLTVVSY (peptide)
peptide: TFDLTVVSY
For B19, which peptide exchange yield [2] is on record?
The peptide exchange yield was 20 to 50%.

B20: SVADIRNAY (peptide)
peptide: SVADIRNAY
With B20 as the binder, how does the peptide exchange yield [2] read?
The peptide exchange yield was 20 to 50%.

B21: WIGDKSFEY (peptide)
peptide: WIGDKSFEY
How did the peptide exchange yield [2] turn out when B21 was run?
The peptide exchange yield was 20 to 50%.

B22: YVDAGTPMY (peptide)
peptide: YVDAGTPMY
Which peptide exchange yield [2] does the source give for B22 here?
The peptide exchange yield was 50 to 75%.

B23: VTEEPQRLFY (peptide)
peptide: VTEEPQRLFY
For B23, which peptide exchange yield [2] is on record?
The peptide exchange yield was over 75%.

B24: HVDQDLTTY (peptide)
peptide: HVDQDLTTY
How did the peptide exchange yield [2] turn out when B24 was run?
The peptide exchange yield was 20 to 50%.

B25: ISEAGKDLLY (peptide)
peptide: ISEAGKDLLY
For B25, which peptide exchange yield [2] is on record?
The peptide exchange yield was 50 to 75%.

B26: RSDPGGGGLAY (peptide)
peptide: RSDPGGGGLAY
How did the peptide exchange yield [2] turn out when B26 was run?
Its peptide exchange yield is 50 to 75%.

B27: LTDSEKGNSY (peptide)
peptide: LTDSEKGNSY
For B27, which peptide exchange yield [2] is on record?
Its peptide exchange yield is 50 to 75%.

B28: YTDKKSIIY (peptide)
peptide: YTDKKSIIY
For B28, which peptide exchange yield [2] is on record?
The peptide exchange yield was 50 to 75%.

B29: YSDKEFAGSY (peptide)
peptide: YSDKEFAGSY
With B29 as the binder, how does the peptide exchange yield [2] read?
Its peptide exchange yield is over 75%.

B30: FTDIDGQVY (peptide)
peptide: FTDIDGQVY
B30 was tested. Which peptide exchange yield [2] did it give?
Its peptide exchange yield is 50 to 75%.

B31: KAYNRVIFV (peptide)
peptide: KAYNRVIFV
B31 was tested. Which peptide exchange yield [3] did it give?
Its peptide exchange yield is 50 to 75%.

B32: YLLPSVVLL (peptide)
peptide: YLLPSVVLL
For B32, which peptide exchange yield [3] is on record?
Its peptide exchange yield is over 75%.

B33: SLFEGIYTI (peptide)
peptide: SLFEGIYTI
Which peptide exchange yield [3] does the source give for B33 here?
The peptide exchange yield was over 75%.

B34: FSLEDLVRI (peptide)
peptide: FSLEDLVRI
B34 was tested. Which peptide exchange yield [3] did it give?
Its peptide exchange yield is 20 to 50%.

B35: FLFDKLLLI (peptide)
peptide: FLFDKLLLI
B35 was tested. Which peptide exchange yield [3] did it give?
The peptide exchange yield was over 75%.

B36: ILHAQTLKI (peptide)
peptide: ILHAQTLKI
For B36, which peptide exchange yield [3] is on record?
Its peptide exchange yield is 50 to 75%.

B37: FAFSGVLRA (peptide)
peptide: FAFSGVLRA
B37 was tested. Which peptide exchange yield [3] did it give?
The peptide exchange yield was 20 to 50%.

B38: KLGPVAVSI (peptide)
peptide: KLGPVAVSI
For B38, which peptide exchange yield [3] is on record?
The peptide exchange yield was over 75%.

B39: YLNEKSLQL (peptide)
peptide: YLNEKSLQL
With B39 as the binder, how does the peptide exchange yield [3] read?
Its peptide exchange yield is over 75%.

B40: SLYVQQLKI (peptide)
peptide: SLYVQQLKI
Which peptide exchange yield [3] does the source give for B40 here?
Its peptide exchange yield is over 75%.

B41: RLIAKEMNI (peptide)
peptide: RLIAKEMNI
How did the peptide exchange yield [3] turn out when B41 was run?
The peptide exchange yield was over 75%.

B42: SLADVHIEV (peptide)
peptide: SLADVHIEV
For B42, which peptide exchange yield [3] is on record?
Its peptide exchange yield is over 75%.

B43: KLLGYDVHV (peptide)
peptide: KLLGYDVHV
How did the peptide exchange yield [3] turn out when B43 was run?
The peptide exchange yield was 50 to 75%.

B44: AMPDSPAEV (peptide)
peptide: AMPDSPAEV
How did the peptide exchange yield [3] turn out when B44 was run?
Its peptide exchange yield is over 75%.

B45: VMLQINPKL (peptide)
peptide: VMLQINPKL
Which peptide exchange yield [3] does the source give for B45 here?
The peptide exchange yield was 50 to 75%.

B46: ILAAVETRL (peptide)
peptide: ILAAVETRL
Which peptide exchange yield [3] does the source give for B46 here?
Its peptide exchange yield is 50 to 75%.

B47: FLLPKVQSI (peptide)
peptide: FLLPKVQSI
For B47, which peptide exchange yield [3] is on record?
Its peptide exchange yield is over 75%.

B48: FLLPKVQSIQL (peptide)
peptide: FLLPKVQSIQL
For B48, which peptide exchange yield [3] is on record?
Its peptide exchange yield is 50 to 75%.

B49: FLINTNSEL (peptide)
peptide: FLINTNSEL
B49 was tested. Which peptide exchange yield [3] did it give?
The peptide exchange yield was over 75%.

B50: SLMDLQERL (peptide)
peptide: SLMDLQERL
Which peptide exchange yield [3] does the source give for B50 here?
Its peptide exchange yield is 50 to 75%.

B51: KLSDNILKL (peptide)
peptide: KLSDNILKL
With B51 as the binder, how does the peptide exchange yield [3] read?
The peptide exchange yield was over 75%.

B52: RVFPSPMRI (peptide)
peptide: RVFPSPMRI
Which peptide exchange yield [4] does the source give for B52 here?
The peptide exchange yield was 20 to 50%.

B53: SVLDLSVHK (peptide)
peptide: SVLDLSVHK
B53 was tested. Which peptide exchange yield [4] did it give?
Its peptide exchange yield is 20 to 50%.

B54: RIKPPGPTAVPK (peptide)
peptide: RIKPPGPTAVPK
With B54 as the binder, how does the peptide exchange yield [4] read?
The peptide exchange yield was 50 to 75%.

B55: GLLEEALFY (peptide)
peptide: GLLEEALFY
For B55, which peptide exchange yield [4] is on record?
The peptide exchange yield was 20 to 50%.

B56: ASTTVLALK (peptide)
peptide: ASTTVLALK
B56 was tested. Which peptide exchange yield [4] did it give?
Its peptide exchange yield is 20 to 50%.

B57: KAFNQSSTLTK (peptide)
peptide: KAFNQSSTLTK
With B57 as the binder, how does the peptide exchange yield [4] read?
The peptide exchange yield was 50 to 75%.

B58: KLNPQQAPLY (peptide)
peptide: KLNPQQAPLY
How did the peptide exchange yield [4] turn out when B58 was run?
Its peptide exchange yield is 20 to 50%.

B59: KTLPAMLGTGK (peptide)
peptide: KTLPAMLGTGK
B59 was tested. Which peptide exchange yield [4] did it give?
The peptide exchange yield was 20 to 50%.

B60: RMYSQLKTLQK (peptide)
peptide: RMYSQLKTLQK
For B60, which peptide exchange yield [4] is on record?
Its peptide exchange yield is 50 to 75%.

B61: ATYNKQPMYR (peptide)
peptide: ATYNKQPMYR
With B61 as the binder, how does the peptide exchange yield [4] read?
Its peptide exchange yield is 50 to 75%.

B62: LLWHWDTTQSLK (peptide)
peptide: LLWHWDTTQSLK
For B62, which peptide exchange yield [4] is on record?
Its peptide exchange yield is 10 to 20%.

B63: RVYNIYIRR (peptide)
peptide: RVYNIYIRR
With B63 as the binder, how does the peptide exchange yield [4] read?
Its peptide exchange yield is 20 to 50%.

B64: ATGAATPKK (peptide)
peptide: ATGAATPKK
B64 was tested. Which peptide exchange yield [4] did it give?
The peptide exchange yield was 50 to 75%.

B65: KATGAATPK (peptide)
peptide: KATGAATPK
With B65 as the binder, how does the peptide exchange yield [4] read?
The peptide exchange yield was 20 to 50%.

B66: RIKAPSRNTIQK (peptide)
peptide: RIKAPSRNTIQK
For B66, which peptide exchange yield [4] is on record?
Its peptide exchange yield is 20 to 50%.

B67: TTVPHVFSK (peptide)
peptide: TTVPHVFSK
With B67 as the binder, how does the peptide exchange yield [4] read?
The peptide exchange yield was 20 to 50%.

B68: RVLTGVFTK (peptide)
peptide: RVLTGVFTK
With B68 as the binder, how does the peptide exchange yield [4] read?
The peptide exchange yield was 20 to 50%.

B69: HSYSSPSTK (peptide)
peptide: HSYSSPSTK
For B69, which peptide exchange yield [4] is on record?
The peptide exchange yield was 50 to 75%.

B70: SISNLVFTY (peptide)
peptide: SISNLVFTY
How did the peptide exchange yield [4] turn out when B70 was run?
Its peptide exchange yield is 20 to 50%.

B71: LLNRHILAH (peptide)
peptide: LLNRHILAH
B71 was tested. Which peptide exchange yield [4] did it give?
Its peptide exchange yield is 50 to 75%.
